The values below come from paper PMC5992322 (Cell, 2017).

The labels stand for the following.
B1: GST-Nup116(348-458) (domain or fragment, S. cerevisiae, UniProt Q02630 348-458, looked up)
chain: GALFGAKPASGGLFGQSAGSKAFGMNTNPTGTTGGLFGQTNQQQSGGGLFGQQQNSNAGGLFGQNNQSQNQSGLFGQQNSSNAFGQPQQQGGLFGSKPAGGLFGQQQGAST
B2: His6-Avitag-MBP-Nup116(718-1113) (domain or fragment, S. cerevisiae, UniProt Q02630 718-1113, looked up)
chain: SQSMAQSQNALQQQQQQQRLQIQNNNPYGTNELFSKATVTNTVSYPIQPSATKIKADERKKASLTNAYKMIPKTLFTAKLKTNNSVMDKAQIKVDPKLSISIDKKNNQIAISNQQEENLDESILKASELLFNPDKRSFKNLINNRKMLIASEEKNNGSQNNDMNFKSKSEEQETILGKPKMDEKETANGGERMVLSSKNDGEDSATKHHSRNMDEENKENVADLQKQEYSEDDKKAVFADVAEKDASFINENYYISPSLDTLSSYSLLQLRKVPHLVVGHKSYGKIEFLEPVDLAGIPLTSLGGVIITFEPKTCIIYANLPNRPKRGEGINVRARITCFNCYPVDKSTRKPIKDPNHQLVKRHIERLKKNPNSKFESYDADSGTYVFIVNHAAEQT
modifications: biotin on the Avitag
B3: Nup170(980-1502) (domain or fragment, S. cerevisiae, UniProt P38181 980-1502, looked up)
chain: SIEYTATALQERCGSFCSASDILGFRAIEHLRRAKEIGLRNYDSLNYHLKNATALLEQIVDDLSIEKLKEAVSMMLSVNYYPKSIEFLLNIANSMDKGKLACQYVANGFLENDDRKQYYDKRILVYDLVFDTLIKVDELAEKKQSSKTQNQISISNDDEVKLRQKSYEAALKYNDRLFHYHMYDWLVSQNREEKLLDIETPFILPYLMEKAGSSLKISNILWVYYSRRSKFFESAEILYRLATSNFDITLFERIEFLSRANGFCNSVSPLSQKQRIVQLASRIQDACEVAGIQGDILSLVYTDARIDSAIKDELIKTLDGKILSTSELFNDFAVPLSYHEIALFIFKIADFRDHEVIMAKWDELFQSLRMEFNNTGKKEDSMNFINLLSNVLIKIGKNVQDSEFIFPIFELFPIVCNFFYETLPKEHIVSGSIVSIFITAGVSFNKMYYILKELIETSDSDNSVFNKEMTWLIHEWYKSDRKFRDIISYNDIIHLKEYKIDNDPIEKYVKNSGNNLGICFYKE
B4: GST-Nup100(1-610) (domain or fragment, S. cerevisiae, UniProt Q02629 1-610, looked up)
chain: MFGNNRPMFGGSNLSFGSNTSSFGGQQSQQPNSLFGNSNNNNNSTSNNAQSGFGGFTSAAGSNSNSLFGNNNTQNNGAFGQSMGATQNSPFGSLNSSNASNGNTFGGSSSMGSFGGNTNNAFNNNSNSTNSPFGFNKPNTGGTLFGSQNNNSAGTSSLFGGQSTSTTGTFGNTGSSFGTGLNGNGSNIFGAGNNSQSNTTGSLFGNQQSSAFGTNNQQGSLFGQQSQNTNNAFGNQNQLGGSSFGSKPVGSGSLFGQSNNTLGNTTNNRNGLFGQMNSSNQGSSNSGLFGQNSMNSSTQGVFGQNNNQMQINGNNNNSLFGKANTFSNSASGGLFGQNNQQQGSGLFGQNSQTSGSSGLFGQNNQKQPNTFTQSNTGIGLFGQNNNQQQQSTGLFGAKPAGTTGSLFGGNSSTQPNSLFGTTNVPTSNTQSQQGNSLFGATKLTNMPFGGNPTANQSGSGNSLFGTKPASTTGSLFGNNTASTTVPSTNGLFGNNANNSTSTTNTGLFGAKPDSQSKPALGGGLFGNSNSNSSTIGQNKPVFGGTTQNTGLFGATGTNSSAVGSTGKLFGQNNNTLNVGTQNVPPVNNTTQNALLGTTAVPSLQQAPVTN
B5: GST-Nup100(1-307) (domain or fragment, S. cerevisiae, UniProt Q02629 1-307, looked up)
chain: MFGNNRPMFGGSNLSFGSNTSSFGGQQSQQPNSLFGNSNNNNNSTSNNAQSGFGGFTSAAGSNSNSLFGNNNTQNNGAFGQSMGATQNSPFGSLNSSNASNGNTFGGSSSMGSFGGNTNNAFNNNSNSTNSPFGFNKPNTGGTLFGSQNNNSAGTSSLFGGQSTSTTGTFGNTGSSFGTGLNGNGSNIFGAGNNSQSNTTGSLFGNQQSSAFGTNNQQGSLFGQQSQNTNNAFGNQNQLGGSSFGSKPVGSGSLFGQSNNTLGNTTNNRNGLFGQMNSSNQGSSNSGLFGQNSMNSSTQGVFGQNNN
B6: ScKap95 (natural protein, S. cerevisiae, UniProt Q06142 1-861, looked up)
chain: MSTAEFAQLLENSILSPDQNIRLTSETQLKKLSNDNFLQFAGLSSQVLIDENTKLEGRILAALTLKNELVSKDSVKTQQFAQRWITQVSPEAKNQIKTNALTALVSIEPRIANAAAQLIAAIADIELPHGAWPELMKIMVDNTGAEQPENVKRASLLALGYMCESADPQSQALVSSSNNILIAIVQGAQSTETSKAVRLAALNALADSLIFIKNNMEREGERNYLMQVVCEATQAEDIEVQAAAFGCLCKIMSLYYTFMKPYMEQALYALTIATMKSPNDKVASMTVEFWSTICEEEIDIAYELAQFPQSPLQSYNFALSSIKDVVPNLLNLLTRQNEDPEDDDWNVSMSAGACLQLFAQNCGNHILEPVLEFVEQNITADNWRNREAAVMAFGSIMDGPDKVQRTYYVHQALPSILNLMNDQSLQVKETTAWCIGRIADSVAESIDPQQHLPGVVQACLIGLQDHPKVATNCSWTIINLVEQLAEATPSPIYNFYPALVDGLIGAANRIDNEFNARASAFSALTTMVEYATDTVAETSASISTFVMDKLGQTMSVDENQLTLEDAQSLQELQSNILTVLAAVIRKSPSSVEPVADMLMGLFFRLLEKKDSAFIEDDVFYAISALAASLGKGFEKYLETFSPYLLKALNQVDSPVSITAVGFIADISNSLEEDFRRYSDAMMNVLAQMISNPNARRELKPAVLSVFGDIASNIGADFIPYLNDIMALCVAAQNTKPENGTLEALDYQIKVLEAVLDAYVGIVAGLHDKPEALFPYVGTIFQFIAQVAEDPQLYSEDATSRAAVGLIGDIAAMFPDGSIKQFYGQDWVIDYIKRTRSGQLFSQATKDTARWAREQQKRQLSL
B7: Nup192(2-960) (domain or fragment, S. cerevisiae, UniProt P47054 2-960, looked up)
chain: KWSAIPFQTLYRSIESGEFDFDLFKEVLPDLQNLNLNTDKLKNNASRSQLEKGEIELSDGSTFKVNQEFIFEAISLSDELNLDEIVACELILSGDTTANNGKVQYFLRRQYILQIVSFIVNCFHEDTELYQELIKNGALVSNILSAFKFIHTQLSEIKQQINKAQILENYNALFQQNIKFRRDFLLREYDILSQILYGLVDKGAIMKNKDFILSLLHHVSELDSNDFFIIYYTPAFFHLFASLRVLPDADVKLLHSQFMKDLKDDSIYTKPVKVALIFIFFAYFIGWCKEDPKRRADTMDFKTDVDEPMTSAVELGAIEQILIFAADTSIVEQDKSMELFYDIRSLLERHIPRLIPKQLLDDEKIFSQTTNSTYNPASATDNMSGRGLWNPSYPGMMSTTGTARLNSMPNNVNEYSYTTIVLSDQTQEFFLSSFDDVLQTIITDCAFLLTKIKDAEEDSLLSGEDLTLDDISLKADLERFFLSIYFFYASRPEYSCTFWSDKESNAYGFIEWCSRCNDNLMRSCFYLMVSSLSFGPENALNVYHYFGENSSISWKNIAQCLSDYTKKISNFNSSLHKRQQFSESTHNDIDSTAVALEEGLNEEAVIFLSSLLTLVGSVTYQVDEDVKSSLSKVFSDVLFEFTKINTPLVGAAFKVISNLVPKLESSRTKFWSFLDSLIFKDSSLNYSSESYRNAFTNVLTKYSDVLGFLQLFHNLISIHSRENNSEYMVFGKLAFPTRLGQGYRKVGIWPYFDYIFNDILAHVDQIVDIRNKRAVQLPILKIIYTGLCSFDYSVILNSIPAAANLDALVDCENFFNYVQECPAIPIFNYIFTEKIYKSIFNVVDVGVDQLSIELEGGKNQAELLQLAVKIINKVLDYQETYVEELFPIVKKHGKTDYFLPKNYSLHGLRSFYDAIFFNIPLVAHLGLYVGVDDQILATNSLRILAKLSERSNGSVASLS

Test [1] concerns the target Nup84-Nup133(521-1157) complex (S. cerevisiae, UniProt P52891 1-726; P36161 521-1157). The experiment in a line: pull-down.
Test [2] addresses B7. The experiment in a line: BLI.
Test [3] deals with His6-Avitag-MBP-Nup116 (S. cerevisiae, UniProt Q02630 1-1113, biotin on the Avitag). The experiment in a line: BLI.

Nup84-Nup133(521-1157) complex, sequence (P52891 whole entry, chain 1 of 2): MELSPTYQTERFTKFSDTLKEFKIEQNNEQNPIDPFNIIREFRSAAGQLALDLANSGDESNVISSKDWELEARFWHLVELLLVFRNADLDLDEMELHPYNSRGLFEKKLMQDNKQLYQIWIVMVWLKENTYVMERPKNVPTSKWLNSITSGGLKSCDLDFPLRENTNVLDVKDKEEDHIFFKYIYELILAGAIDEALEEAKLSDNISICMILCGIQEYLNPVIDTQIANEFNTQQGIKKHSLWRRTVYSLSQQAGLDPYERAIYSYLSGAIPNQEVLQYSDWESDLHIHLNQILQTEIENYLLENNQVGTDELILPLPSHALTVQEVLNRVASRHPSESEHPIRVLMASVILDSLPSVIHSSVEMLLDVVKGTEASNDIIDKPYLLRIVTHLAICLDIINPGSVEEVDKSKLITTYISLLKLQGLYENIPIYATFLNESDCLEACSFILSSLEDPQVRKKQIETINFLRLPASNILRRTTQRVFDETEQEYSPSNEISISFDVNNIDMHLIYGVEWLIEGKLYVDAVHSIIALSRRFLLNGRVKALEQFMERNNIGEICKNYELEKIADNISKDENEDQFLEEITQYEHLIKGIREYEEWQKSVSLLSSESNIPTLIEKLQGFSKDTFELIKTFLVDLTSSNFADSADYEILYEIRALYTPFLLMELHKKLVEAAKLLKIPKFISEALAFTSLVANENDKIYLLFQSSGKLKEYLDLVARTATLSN
Nup84-Nup133(521-1157) complex, sequence (P36161 521-1157, chain 2 of 2): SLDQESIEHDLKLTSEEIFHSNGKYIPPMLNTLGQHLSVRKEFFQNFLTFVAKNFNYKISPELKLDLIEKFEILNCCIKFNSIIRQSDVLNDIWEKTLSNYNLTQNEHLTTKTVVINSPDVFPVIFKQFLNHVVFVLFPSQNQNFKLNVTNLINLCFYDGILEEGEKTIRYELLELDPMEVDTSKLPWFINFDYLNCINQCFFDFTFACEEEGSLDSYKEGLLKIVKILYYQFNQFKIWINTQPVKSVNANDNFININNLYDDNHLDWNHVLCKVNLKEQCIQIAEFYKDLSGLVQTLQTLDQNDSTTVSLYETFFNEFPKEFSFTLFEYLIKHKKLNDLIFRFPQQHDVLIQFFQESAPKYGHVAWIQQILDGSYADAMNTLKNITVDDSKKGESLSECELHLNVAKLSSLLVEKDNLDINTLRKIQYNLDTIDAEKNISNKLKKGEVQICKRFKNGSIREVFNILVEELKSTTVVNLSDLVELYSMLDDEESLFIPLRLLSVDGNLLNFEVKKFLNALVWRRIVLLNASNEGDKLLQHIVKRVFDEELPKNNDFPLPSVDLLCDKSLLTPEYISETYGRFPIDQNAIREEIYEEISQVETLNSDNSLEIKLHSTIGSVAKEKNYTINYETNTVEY

Regarding B1, in test [1], the binding result is “binds”. Take B2: the binding result in test [2] is “binds”. Turning to B3, in test [3], the binding result is given as “binds”.

In the case of B4, the binding result in test [1] is given as “binds”. On to B5, for which the binding result in test [1] was “binds”. B6: in test [3], the binding result is reported as “binds”. Regarding B7, in test [3], the “KD of the dominant of the two binding modes” value was 500 nM and the “fold lower KD than with the Nup116 variant lacking the GLFG-repeats” value was about 15 fold.
